Experimental data from patent US7608695B2, “Substance with antithrombotic activity and method for detecting glycokallidin” (Ajinomoto Co., Inc., priority 1998, dated 2009).

Tests used:
[1] = test system: anti-glycocalicin antibodies; settings: competitive ELISA, literature; cited from earlier work
[2] = target: T1, binding of von Willebrand factor and chimeric protein (glycoprotein Ib) (Homo sapiens, UniProt P04275+P07359); test: Detection of glycocalicin in plasma by ELISA using anti-mouse IgG-Fc antibodies; set-up: made in house; host or cells: CHOdhfr- cells transfected with pSDGPIbIgG1Fc; unpurified serum-free culture supernatant; settings: diluted human plasma, based on reported blood concentration about 2 μg/ml
Description: Immobilization of a mixed solution of von Willebrand factor and botrocetin on a 96-well multititer plate was attained as follows. First, a physiological saline solution of von Willebrand factor (250 μg/ml) and a physiological saline solution of botrocetin (500 μg/ml), which were prepared in a conventional manner, were appropriately diluted, and mixed at the concentration ratios shown in FIG. 2. Then, 50 μl of each mixture was added to each well of a 96-well multititer plate (Maxisorp, produced by Nunc). […]
Each well was washed 5 times with TBS (150 μl) containing 0.05% Tween-20, and added with 100 μl of 100 mM NaHCO3 solution containing 10 mM MgCl2, in which p-nitrophenylphosphate was dissolved at 1 mg/ml, to carry out the color development reaction for about 1 hour. After the color development, absorbance at 405 nm was measured.
The detection was carried out in the same manner as that of Example 4 <1> except that von Willebrand factor was immobilized by using a mixed solution (TBS) containing 2.5 μg/ml of von Willebrand factor and 2.5 μg/ml of botrocetin, and a binding inhibition substance of which inhibitory activity was desired to be measured was added to the reaction of the immobilized von Willebrand factor and the culture supernatant of the chimeric protein producing cells. […]

[3] = target: T1, binding of von Willebrand factor and chimeric protein (glycoprotein Ib); test: Detection of glycocalicin in plasma using chimeric protein labeled with europium (Eu); set-up: made in house; host or cells: CHOK1 cells transfected with pMikGPIbFc; purified on a Protein A column and labelled with europium; settings: diluted human plasma, based on reported blood concentration about 2 μg/ml
Description: The detection was carried out in the same manner as that of Example 4 <2> except that svon Willebrand factor was immobilized by using a mixed solution (TBS) containing 2.5 μg/ml of von Willebrand factor and 2.5 μg/ml of botrocetin, and a binding inhibition substance of which inhibitory activity was desired to be measured was added to the reaction of the immobilized von Willebrand factor and the chimeric protein labeled with europium (Eu).
Each human plasma independently prepared in the same manner as the above <1> were successively diluted 2-fold with TBS (8 times of dilution in total), and 25 μl each of the diluted plasma was added to each well of a von Willebrand factor immobilized plate prepared in the same manner as in Example 5 <1> (microtitration plate DELFIA, 1244-550, produced by Pharmacia Biotech, was used as the base plate). Further, 25 μl a solution of the chimeric protein labeled with europium (Eu) in assay buffer prepared in the same manner as in Example 4 <1> (100 ng/ml, Assay Buffer; 1244-106, produced by Pharmacia Biotech) was added to each well of the plate for reaction. The subsequent washing and measurement were performed in the same manner as in Example 5 <2>, and the average values of the results are shown in FIG. 7.

## glycocalicin: enzymatically cleaved extracellular portion of platelet membrane glycoprotein Ibα chain, about 135 kDa
[1]
  IC50 value of the glycocalicin concentration showing competitive inhibition: about 4 μg/ml
[2]
  Glycocalicin concentration showing 50% binding inhibition: about 400 ng/ml
[3]
  Glycocalicin concentration showing 50% binding inhibition: about 60 ng/ml
